The stoichiometry N is the number of molecules, sites or subunits per partner or assembly.

Where “and” joins values, the source holds several entries; their conditions need not be identical. Equal values may be shown once.

Data set [1] deals with the molecule itself. The data set can be described thus: spatial intensity distribution analysis (SpIDA) of confocal images; basolateral membrane of intact cells treated with antagonist for 90 min at 37 °C (SB242084 50 nM, SB243213 50 nM or RS102221 100 nM); one-population model; QB against monomeric P-M-A206K eGFP.
Data set [2] deals with the molecule itself. The experiment in a line: spatial intensity distribution analysis (SpIDA) of confocal images; basolateral membrane of intact cells induced with varying doxycycline, not treated with ligand (also vehicle, and after washout of antagonists with 60 min recovery); one-population model; QB against monomeric P-M-A206K eGFP.

B1: human 5-HT2C receptor fused at its carboxyl terminus to A206K eGFP (5-HT2C-A206K eGFP) (receptor, UniProt P28335 33-458, looked up)
chain: IVTDIFNTSDGGRFKFPDGVQNWPALSIVIIIIMTIGGNILVIMAVSMEKKLHNATNYFLMSLAIADMLVGLLVMPLSLLAILYDYVWPLPRYLCPVWISLDVLFSTASIMHLCAISLDRYVAIRNPIEHSRFNSRTKAIMKIAIVWAISIGVSVPIPVIGLRDEEKVFVNNTTCVLNDPNFVLIGSFVAFFIPLTIMVITYCLTIYVLRRQALMLLHGHTEEPPGLSLDFLKCCKRNTAEEENSANPNQDQNARRRKKKERRPRGTMQAINNERKASKVLGIVFFVFLIMWCPFFITNILSVLCEKSCNQKLMEKLLNVFVWIGYVCSGINPLVYTLFNKIYRRAFSNYLRCNYKVEKKPPVRQIPRVAATALSGRELNVNIYRHTNEPVIEKASDNEPGIEMQVENLELPVNPSSVVSERISSV
notes: serotonin 5-hydroxytryptamine 2C (5-HT2C) receptor, human; construct in pEGFPN1, a gift of Dr. K. Herrick-Davis, subcloned into pcDNA5/FRT/TO; also called 5-HT2C-eGFP; serotonin 5-hydroxytryptamine 2C receptor; not shown: A206K eGFP, C-terminal, kept
B1: in data set [1], the “average quantal brightness relative to monomeric P-M-A206K eGFP, after SB242084 (50 nM, 90 min)” value is 1.46 fold. In addition, in data set [2], the “average quantal brightness relative to monomeric P-M-A206K eGFP” value worked out at 1.85 times; the “stoichiometry N” value was 2 and 4.

The values above are taken from publication PMC4432300, “Regulation of Oligomeric Organization of the Serotonin 5-Hydroxytryptamine 2C (5-HT2C) Receptor Observed by Spatial Intensity Distribution Analysis*” (The Journal of Biological Chemistry, 2015).
